Values quoted from earlier work, collected in paper PMC5979509.

Target: Neuropilin-1 (Homo sapiens) (UniProt O14786)
Experiment: radioligand binding

UniProt O14786, sequence (O14786 22-923): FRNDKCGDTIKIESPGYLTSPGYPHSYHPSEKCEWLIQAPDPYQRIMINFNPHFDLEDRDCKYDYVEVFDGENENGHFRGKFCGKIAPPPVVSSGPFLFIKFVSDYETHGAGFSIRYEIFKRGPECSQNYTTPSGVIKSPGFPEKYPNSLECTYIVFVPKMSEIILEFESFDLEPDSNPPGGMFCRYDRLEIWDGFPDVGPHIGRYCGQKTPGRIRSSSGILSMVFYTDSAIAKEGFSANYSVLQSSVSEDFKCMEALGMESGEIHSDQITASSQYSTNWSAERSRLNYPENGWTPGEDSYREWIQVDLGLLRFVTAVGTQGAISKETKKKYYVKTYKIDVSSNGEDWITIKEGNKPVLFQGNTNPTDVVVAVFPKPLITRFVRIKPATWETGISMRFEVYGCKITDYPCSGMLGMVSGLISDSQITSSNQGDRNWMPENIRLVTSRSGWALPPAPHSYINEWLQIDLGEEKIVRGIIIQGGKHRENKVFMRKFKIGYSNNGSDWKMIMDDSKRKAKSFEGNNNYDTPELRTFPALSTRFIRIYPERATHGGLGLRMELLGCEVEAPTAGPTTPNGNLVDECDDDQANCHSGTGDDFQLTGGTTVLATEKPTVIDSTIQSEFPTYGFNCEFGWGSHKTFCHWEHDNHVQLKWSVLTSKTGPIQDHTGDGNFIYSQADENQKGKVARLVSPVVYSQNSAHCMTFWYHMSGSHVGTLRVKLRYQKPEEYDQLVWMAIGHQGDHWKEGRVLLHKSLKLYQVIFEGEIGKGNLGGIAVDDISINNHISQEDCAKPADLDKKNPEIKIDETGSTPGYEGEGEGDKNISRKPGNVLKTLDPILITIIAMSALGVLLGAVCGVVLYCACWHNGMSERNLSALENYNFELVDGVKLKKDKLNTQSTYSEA

- Kd: < 3 nM
Substance: VEGF165a (from UniProt P15692)
